# According to patent publication US20050037969A1 (ARBOR VITA, published 2005):
# Ends that are not written are not given here. * marks the point of attachment. Biotin = O=C1N[C@H]2[C@H](CS[C@H]2CCCCC(=O)*)N1
# T1: GST-CASK PDZ domain fusion protein (Homo sapiens, UniProt O14936 486-575)
# T1 construct: also called Homo sapiens CASK protein
# T1 sequence: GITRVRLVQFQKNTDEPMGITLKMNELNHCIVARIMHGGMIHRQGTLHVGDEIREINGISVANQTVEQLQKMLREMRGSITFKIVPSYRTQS
# T2: GST-TAX-IP43 PDZ domain fusion protein (human, UniProt Q13884 109-180)
# T2 construct: also called TAX43; not shown: glutathione S-transferase encoded by vector pGEX-3X (Pharmacia)
# T2 sequence: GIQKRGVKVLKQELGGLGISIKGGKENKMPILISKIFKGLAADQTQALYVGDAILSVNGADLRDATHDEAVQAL
# T3: GST-PDZK1 fusion protein (PDZ domains 2-4) (Homo sapiens, UniProt Q5T2W1 134-457)
# T3 construct: not shown: glutathione S-transferase encoded by vector pGEX-3X (Pharmacia)
# T3 sequence: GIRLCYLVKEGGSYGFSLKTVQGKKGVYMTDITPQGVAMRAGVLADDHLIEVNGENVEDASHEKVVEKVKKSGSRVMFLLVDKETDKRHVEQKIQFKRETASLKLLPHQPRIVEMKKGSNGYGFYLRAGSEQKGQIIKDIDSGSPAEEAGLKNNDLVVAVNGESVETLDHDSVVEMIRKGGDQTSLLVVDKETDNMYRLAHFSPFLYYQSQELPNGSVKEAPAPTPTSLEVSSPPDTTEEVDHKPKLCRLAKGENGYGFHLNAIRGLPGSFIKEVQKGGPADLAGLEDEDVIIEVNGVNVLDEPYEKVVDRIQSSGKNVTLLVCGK
# T4: GST-DLG5 (p-dlg) PDZ domain fusion protein (Human, UniProt Q8TDM6 1343-1583)
# T4 construct: also called Human discs large protein p-dlg; not shown: glutathione S-transferase encoded by vector pGEX-3X (Pharmacia)
# T4 sequence: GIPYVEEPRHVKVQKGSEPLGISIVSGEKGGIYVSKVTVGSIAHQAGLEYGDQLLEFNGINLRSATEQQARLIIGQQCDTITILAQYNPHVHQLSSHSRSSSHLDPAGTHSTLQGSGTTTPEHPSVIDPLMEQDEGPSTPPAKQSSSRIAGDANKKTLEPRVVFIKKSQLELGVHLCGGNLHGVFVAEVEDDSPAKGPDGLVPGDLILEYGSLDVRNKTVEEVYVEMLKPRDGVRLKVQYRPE
# T5: GST-mouse syntenin fusion protein (Mus musculus, UniProt O08992 108-286)
# T5 construct: also called Mus musculus Syntenin; not shown: glutathione S-transferase encoded by vector pGEX-3X (Pharmacia)
# T5 chain: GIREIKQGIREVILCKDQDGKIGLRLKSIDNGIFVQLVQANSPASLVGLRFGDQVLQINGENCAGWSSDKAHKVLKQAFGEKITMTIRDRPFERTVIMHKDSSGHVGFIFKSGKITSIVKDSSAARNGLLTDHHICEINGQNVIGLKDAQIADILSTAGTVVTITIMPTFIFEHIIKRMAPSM
# T6: GST-DVL1 PDZ domain fusion protein (human, UniProt O14640 247-339)
# T6 construct: also called human dishevelled segment polarity protein homolog; not shown: glutathione S-transferase encoded by vector pGEX-3X (Pharmacia)
# T6 sequence: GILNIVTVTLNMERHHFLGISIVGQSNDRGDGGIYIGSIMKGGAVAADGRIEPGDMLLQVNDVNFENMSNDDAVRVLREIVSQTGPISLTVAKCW
# T7: X11β PDZ-GST fusion protein (Rattus norvegicus (Rat), UniProt O35431 560-745)
# T7 construct: Order of GST and PDZ part and limits not seen in the excerpts
# T7 chain: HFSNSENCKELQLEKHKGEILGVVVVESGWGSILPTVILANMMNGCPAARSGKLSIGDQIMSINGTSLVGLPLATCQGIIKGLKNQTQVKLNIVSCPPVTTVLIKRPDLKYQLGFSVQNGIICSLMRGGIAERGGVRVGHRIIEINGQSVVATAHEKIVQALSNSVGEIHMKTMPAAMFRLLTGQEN
# T8: TAX-IP2L PDZ-GST fusion protein (Homo sapiens (Human), UniProt Q8TF64 107-197)
# T8 construct: Order of GST and PDZ part and limits not seen in the excerpts
# T8 sequence: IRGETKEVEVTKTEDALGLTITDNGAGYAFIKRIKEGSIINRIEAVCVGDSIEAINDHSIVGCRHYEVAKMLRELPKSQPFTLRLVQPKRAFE
# T9: TAX-IP33 PDZ-GST fusion protein (Homo sapiens (Human), UniProt O14910 103-193)
# T9 construct: Order of GST and PDZ part and limits not seen in the excerpts
# T9 sequence: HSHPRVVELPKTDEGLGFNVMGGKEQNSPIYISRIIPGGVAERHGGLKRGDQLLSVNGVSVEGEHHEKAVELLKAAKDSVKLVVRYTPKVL
# T10: MINT3 PDZ-GST fusion protein
# T10 construct: Order of GST and PDZ part and limits not seen in the excerpts
# T10 chain: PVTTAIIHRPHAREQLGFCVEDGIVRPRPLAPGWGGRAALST
# T11: K559 PDZ-GST fusion protein (Homo sapiens (Human), UniProt Q9Y6V0 4489-4593)
# T11 construct: Order of GST and PDZ part and limits not seen in the excerpts
# T11 sequence: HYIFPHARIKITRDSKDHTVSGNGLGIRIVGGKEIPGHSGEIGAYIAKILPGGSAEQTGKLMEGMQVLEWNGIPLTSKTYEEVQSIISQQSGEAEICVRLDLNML
# B1: Spectrin (beta) C-terminal peptide AA32L, biotinylated (peptide)
# peptide: Biotin-SFPPCGHRENVPGQSLVSFV
# notes: Marked (S), sticky; also called Spectrin beta (S); Spectrin β
# Biological target: T1, GST-CASK PDZ domain fusion protein
# Experiment: A/G assays
row,binding result,Binder
1,no binding,B1
2,no binding,"Biotin-AWDDSARAAGGQGLHVTAL [LPAP C-terminal peptide AA30L, biotinylated]"
3,no binding,"Biotin-KDSRPSFVGSSSGHTSTTL (also called CDW128E (IL8RB)) [CDW128B (IL8RB) C-terminal peptide AA29.2L, biotinylated]"
4,no binding,"Biotin-KKGTYLTDETHREVKFTSL [CD46 (Form 1) C-terminal peptide AA10L, biotinylated]"
5,no binding,"Biotin-SVFSIPTLWSPWPPSSSSQL (also called CD3η; CD3-eta) [CD3n C-terminal peptide AA4L, biotinylated]"

# Biological target: T2, GST-TAX-IP43 PDZ domain fusion protein
# Experiment: A/G assays
row,binding result,Binder
1,no binding,"Biotin-AWDDSARAAGGQGLHVTAL [LPAP C-terminal peptide AA30L, biotinylated]"
2,no binding,"Biotin-KDSRPSFVGSSSGHTSTTL (also called CDW128E (IL8RB)) [CDW128B (IL8RB) C-terminal peptide AA29.2L, biotinylated]"
3,no binding,"Biotin-KKGTYLTDETHREVKFTSL [CD46 (Form 1) C-terminal peptide AA10L, biotinylated]"
4,no binding,"Biotin-SVFSIPTLWSPWPPSSSSQL (also called CD3η; CD3-eta) [CD3n C-terminal peptide AA4L, biotinylated]"

# Biological target: T3, GST-PDZK1 fusion protein (PDZ domains …)
# Experiment: A/G assays
row,binding result,Binder
1,no binding,B1
2,no binding,"Biotin-AWDDSARAAGGQGLHVTAL [LPAP C-terminal peptide AA30L, biotinylated]"
3,no binding,"Biotin-KDSRPSFVGSSSGHTSTTL (also called CDW128E (IL8RB)) [CDW128B (IL8RB) C-terminal peptide AA29.2L, biotinylated]"
4,no binding,"Biotin-KKGTYLTDETHREVKFTSL [CD46 (Form 1) C-terminal peptide AA10L, biotinylated]"
5,no binding,"Biotin-SVFSIPTLWSPWPPSSSSQL (also called CD3η; CD3-eta) [CD3n C-terminal peptide AA4L, biotinylated]"

# Biological target: T4, GST-DLG5 (p-dlg) PDZ domain fusion …
# Experiment: A/G assays
row,binding result,Binder
1,no binding,"Biotin-AWDDSARAAGGQGLHVTAL [LPAP C-terminal peptide AA30L, biotinylated]"
2,no binding,"Biotin-KDSRPSFVGSSSGHTSTTL (also called CDW128E (IL8RB)) [CDW128B (IL8RB) C-terminal peptide AA29.2L, biotinylated]"
3,no binding,"Biotin-KKGTYLTDETHREVKFTSL [CD46 (Form 1) C-terminal peptide AA10L, biotinylated]"
4,no binding,"Biotin-SVFSIPTLWSPWPPSSSSQL (also called CD3η; CD3-eta) [CD3n C-terminal peptide AA4L, biotinylated]"

# Biological target: T5, GST-mouse syntenin fusion protein
# Experiment: A/G assays
row,binding result,Binder
1,no binding,B1
2,no binding,"Biotin-AWDDSARAAGGQGLHVTAL [LPAP C-terminal peptide AA30L, biotinylated]"
3,no binding,"Biotin-KDSRPSFVGSSSGHTSTTL (also called CDW128E (IL8RB)) [CDW128B (IL8RB) C-terminal peptide AA29.2L, biotinylated]"
4,no binding,"Biotin-KKGTYLTDETHREVKFTSL [CD46 (Form 1) C-terminal peptide AA10L, biotinylated]"
5,no binding,"Biotin-SVFSIPTLWSPWPPSSSSQL (also called CD3η; CD3-eta) [CD3n C-terminal peptide AA4L, biotinylated]"

# Biological target: T6, GST-DVL1 PDZ domain fusion protein
# Experiment: A/G assays
row,binding result,Binder
1,no binding,B1
2,no binding,"Biotin-AWDDSARAAGGQGLHVTAL [LPAP C-terminal peptide AA30L, biotinylated]"
3,no binding,"Biotin-KDSRPSFVGSSSGHTSTTL (also called CDW128E (IL8RB)) [CDW128B (IL8RB) C-terminal peptide AA29.2L, biotinylated]"
4,no binding,"Biotin-KKGTYLTDETHREVKFTSL [CD46 (Form 1) C-terminal peptide AA10L, biotinylated]"
5,no binding,"Biotin-SVFSIPTLWSPWPPSSSSQL (also called CD3η; CD3-eta) [CD3n C-terminal peptide AA4L, biotinylated]"

# Biological target: T7, X11β PDZ-GST fusion protein
# Experiment: A/G assays
row,binding result,Binder
1,no binding,B1
2,no binding,"Biotin-AWDDSARAAGGQGLHVTAL [LPAP C-terminal peptide AA30L, biotinylated]"
3,no binding,"Biotin-KDSRPSFVGSSSGHTSTTL (also called CDW128E (IL8RB)) [CDW128B (IL8RB) C-terminal peptide AA29.2L, biotinylated]"
4,no binding,"Biotin-KKGTYLTDETHREVKFTSL [CD46 (Form 1) C-terminal peptide AA10L, biotinylated]"
5,no binding,"Biotin-SVFSIPTLWSPWPPSSSSQL (also called CD3η; CD3-eta) [CD3n C-terminal peptide AA4L, biotinylated]"

# Biological target: T8, TAX-IP2L PDZ-GST fusion protein
# Experiment: A/G assays
row,binding result,Binder
1,no binding,"Biotin-AWDDSARAAGGQGLHVTAL [LPAP C-terminal peptide AA30L, biotinylated]"
2,no binding,"Biotin-KDSRPSFVGSSSGHTSTTL (also called CDW128E (IL8RB)) [CDW128B (IL8RB) C-terminal peptide AA29.2L, biotinylated]"
3,no binding,"Biotin-KKGTYLTDETHREVKFTSL [CD46 (Form 1) C-terminal peptide AA10L, biotinylated]"
4,no binding,"Biotin-SVFSIPTLWSPWPPSSSSQL (also called CD3η; CD3-eta) [CD3n C-terminal peptide AA4L, biotinylated]"

# Biological target: T9, TAX-IP33 PDZ-GST fusion protein
# Experiment: A/G assays
row,binding result,Binder
1,no binding,"Biotin-AWDDSARAAGGQGLHVTAL [LPAP C-terminal peptide AA30L, biotinylated]"
2,no binding,"Biotin-KDSRPSFVGSSSGHTSTTL (also called CDW128E (IL8RB)) [CDW128B (IL8RB) C-terminal peptide AA29.2L, biotinylated]"
3,no binding,"Biotin-KKGTYLTDETHREVKFTSL [CD46 (Form 1) C-terminal peptide AA10L, biotinylated]"
4,no binding,"Biotin-SVFSIPTLWSPWPPSSSSQL (also called CD3η; CD3-eta) [CD3n C-terminal peptide AA4L, biotinylated]"

# Biological target: T10, MINT3 PDZ-GST fusion protein
# Experiment: A/G assays
row,binding result,Binder
1,no binding,"Biotin-AWDDSARAAGGQGLHVTAL [LPAP C-terminal peptide AA30L, biotinylated]"
2,no binding,"Biotin-KDSRPSFVGSSSGHTSTTL (also called CDW128E (IL8RB)) [CDW128B (IL8RB) C-terminal peptide AA29.2L, biotinylated]"
3,no binding,"Biotin-KKGTYLTDETHREVKFTSL [CD46 (Form 1) C-terminal peptide AA10L, biotinylated]"
4,no binding,"Biotin-SVFSIPTLWSPWPPSSSSQL (also called CD3η; CD3-eta) [CD3n C-terminal peptide AA4L, biotinylated]"

# Biological target: T11, K559 PDZ-GST fusion protein
# Experiment: A/G assays
row,binding result,Binder
1,no binding,B1
2,no binding,"Biotin-AWDDSARAAGGQGLHVTAL [LPAP C-terminal peptide AA30L, biotinylated]"
3,no binding,"Biotin-KDSRPSFVGSSSGHTSTTL (also called CDW128E (IL8RB)) [CDW128B (IL8RB) C-terminal peptide AA29.2L, biotinylated]"
4,no binding,"Biotin-KKGTYLTDETHREVKFTSL [CD46 (Form 1) C-terminal peptide AA10L, biotinylated]"
5,no binding,"Biotin-SVFSIPTLWSPWPPSSSSQL (also called CD3η; CD3-eta) [CD3n C-terminal peptide AA4L, biotinylated]"

# Biological target: T12, K316 PDZ-GST fusion protein (Homo sapiens (Human), UniProt Q14CM0 72-159)
# T12 construct: Order of GST and PDZ part and limits not seen in the excerpts
# Experiment: A/G assays
# T12 sequence (Q14CM0 72-159 limits assumed): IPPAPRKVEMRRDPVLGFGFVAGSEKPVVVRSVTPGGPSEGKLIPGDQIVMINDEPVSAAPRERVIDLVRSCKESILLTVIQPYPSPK
row,binding result,Binder
1,no binding,"Biotin-KDSRPSFVGSSSGHTSTTL (also called CDW128E (IL8RB)) [CDW128B (IL8RB) C-terminal peptide AA29.2L, biotinylated]"
2,no binding,"Biotin-KKGTYLTDETHREVKFTSL [CD46 (Form 1) C-terminal peptide AA10L, biotinylated]"
3,no binding,"Biotin-SVFSIPTLWSPWPPSSSSQL (also called CD3η; CD3-eta) [CD3n C-terminal peptide AA4L, biotinylated]"
